The assay has as its target T1, protein A beads (UniProt P38507 37-477).
T1 construct: Used alone as a control in the immunodepletion; also called protein A beads alone
Kind of assay: CSF incubated with protein A beads alone, SELDI-TOF read-out. The method, then:
20 μl of rabbit anti-human cystatin C or rabbit anti-fusin antisera (DakoCytomation, Carpinteria, Calif.) was bound to 10 μl of protein A beads equilibrated in PBS, pH 7.4, by rocking at room temperature for 1 hr. 10 μl of equilibrated protein A beads alone were used as another control. Each sample was washed three times with PBS pH=7.4. […] 30 μl of this CSF was added to each of the above sample and rocked for 1 hr at room temperature. 15 μl of the supernatant was applied to CM-10 arrays and analyzed as described above.

B1: full-length cystatin C (13.4 kD peak) in human cerebrospinal fluid (other)
chain: SSPGKPPRLVGGPMDASVEEEGVRRALDFAVGEYNKASNDMYHSRALQVVRARKQIVAGVNYFLDVELGRTTCTKTQPNLDNCPFHDQPHLKRKAFCSFQIYAVPWQGTMTLSKSTCQDA
notes: also called biomarker J
B1: the binding result is reported as “no binding”.

B2: C-terminal cleavage product of cystatin C lacking the last 8 amino acids (12.5 kD peak) in human cerebrospinal fluid (other)
chain: SSPGKPPRLVGGPMDASVEEEGVRRALDFAVGEYNKASNDMYHSRALQVVRARKQIVAGVNYFLDVELGRTTCTKTQPNLDNCPFHDQPHLKRKAFCSFQIYAVPWQGTMTL
notes: Endogenous fragment in CSF of MS/CIS patients; also called biomarker A
Take B2: the binding result is reported as “no binding”.

(Values after US20100137420A1 (Johns Hopkins, published 2010).)
